The values below come from patent US7792665B2, “Method for designing a compound based on the three dimensional structure of phosphoinositide dependent protein kinase 1 (PDK1)” (Medical Research Council, priority 2002, dated 2010).

The target in experiment [1] is S6K-pHM, phosphopeptide comprising the hydrophobic motif of S6K1. Nature of the experiment: SPR (BiaCore 3000), biotinylated S6K-pHM on SA chip, GST-PDK1 injected at 2-2150 nM, steady state, apparent Kd. (In general: SPR reads the build-up and loss of mass on a sensor chip optically.)
For experiment [2] the target is unchanged. Nature of the experiment: SPR (BiaCore), rounded value.
The target is the same in experiment [3]. Nature of the experiment: SPR (BiaCore), against wild type PDK1.
In experiment [4] the target is T1, PDK1[K76A] (Homo sapiens, UniProt O15530, K76A).
T1 construct: made in house; host or cells: human embryonic kidney 293 cells (pEBG2T vector)
T1 sequence (O15530 1-556 K76A): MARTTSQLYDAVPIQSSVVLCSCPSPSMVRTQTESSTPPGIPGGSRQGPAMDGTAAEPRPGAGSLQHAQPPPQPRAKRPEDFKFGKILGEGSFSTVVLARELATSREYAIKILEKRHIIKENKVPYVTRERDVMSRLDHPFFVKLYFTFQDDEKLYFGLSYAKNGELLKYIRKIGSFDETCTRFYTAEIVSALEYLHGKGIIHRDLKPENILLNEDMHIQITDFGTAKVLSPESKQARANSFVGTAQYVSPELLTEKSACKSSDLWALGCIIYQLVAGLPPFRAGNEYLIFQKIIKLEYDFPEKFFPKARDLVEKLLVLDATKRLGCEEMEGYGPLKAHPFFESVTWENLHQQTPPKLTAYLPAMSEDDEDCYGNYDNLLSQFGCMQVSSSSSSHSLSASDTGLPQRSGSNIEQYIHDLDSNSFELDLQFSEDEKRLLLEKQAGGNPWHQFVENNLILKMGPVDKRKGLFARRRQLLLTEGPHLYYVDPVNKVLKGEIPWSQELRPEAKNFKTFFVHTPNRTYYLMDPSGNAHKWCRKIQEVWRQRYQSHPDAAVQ
The experiment is described as follows: PDK1 catalytic activity towards T308tide, activation by peptides, PDK1[K76A]. The format is biochemical. As to conditions: high peptide concentrations. As to the method: (§1) C. Activation of the indicated forms of PDK1 by 56K-pHM and S6K-HM. PDK1 activity was measured using the peptide substrate (T308tide) in the presence of the indicated concentrations of 56K-pHM (closed circles) and S6K-HM (open circles) as described in the methods. Assays were performed in triplicate and similar results obtained in 2 separate experiments. The results are the average—SD for a single experiment.
The ability of wild type and mutant PDK1 to phosphorylate the synthetic peptide T308tide ([…] ([Biondi et al., 2000]) (SEQ ID NO:108) was carried out in 30 μl assays containing 100 ng of wild type or mutant PDK1, 50 mM Tris/HCl pH 7.5, 0.1% 13-mercaptoethanol, 10 mM MgCl2, 100 μM [32γ P]ATP (200 cpm/pmol), 0.5 μM microcystin-LR, 1 mM T308tide in the presence or absence of the indicated concentrations of the 56K-pHM peptide ([…](P)YVAPSV) (SEQ ID NO:104) or 56K-HM. peptide ([…]) (SEQ ID NO:105). After incubation for 10 min at 30° C., 25 μl of the resultant mixture was spotted into P81 phosphocellulose paper (2×2 cm) and the papers washed and analysed as described previously for assays of MAP kinase. Control assays were carried out in parallel in which either PDK1, or peptide substrate were omitted; these values were always less than 5% of the activity measured in the presence of these reagents. […]

Experiment [5] deals with T2, wild type PDK1 (Homo sapiens, UniProt O15530).
T2 sequence (O15530 1-556): T1 sequence (O15530 1-556 K76A) with A76K
The experiment is described as follows: Surface plasmon resonance (BiaCore) binding of hydrophobic motif peptides, wild type PDK1. More on the design: made in house; host or cells: human embryonic kidney 293 cells (pEBG2T vector). Conditions: surface plasmon resonance. As to the method:
Binding and activation of wild type and mutant forms of PDK1 to a phosphopeptide derived from the hydrophobic motif of S6K1. The binding of the wild type (wt) PDK1 and indicated mutants to a phosphopeptide comprising the hydrophobic motif of S6K1 (S6K-pHM: […]*YVAPSV, where T* indicates phospho-threonine, SEQ ID NO:104) was analysed by surface plasmon resonance as described in the Materials and Methods.
A. The sensor chip SA was coated with 12RUs of the biotinylated S6K-pHM peptide and the binding was analysed following injection of 270 nM wild type PDK1, PDK1 [T148A] and PDK1 [K76A]. […] (data not shown).
B. As in A. except that binding was analysed over a range of PDK1 concentrations (2-2150 nM). The response level at the steady state binding is plotted versus the log of the PDK1 concentration. The estimated Kd was obtained by fitting the data to a sigmoid curve using Kaleidagraph software.
Binding was analysed in a BiaCore 3000 system (BiaCore AB, Stevenage, UK). Biotinylated S6K-pHM (Biotin-C12-[…](P)YVAPSV) (SEQ ID NO:104) or the non-phosphorylated form of this peptide S6K-HM was bound to an streptavidin-coated Sensor chip (SA) (12 response units, RU). 30 μl of wild type or the indicated mutant GST-PDK1 were injected at a flow rate of 30 μl/min, in buffer HBS-P (10 mM HEPES pH 7.4, 0.15M NaCl, 0.005% (by vol) polysorbate-20) supplemented with 1 mM DTT. Specific interactions between 56K-pHM and PDK1 proteins were obtained between the concentration range of 2-2150 nM PDK1. Steady state binding was determined at each concentration. Dissociation of PDK1 from the phospho-peptide was monitored over a 1 min period. Regeneration of the sensor chip surface was performed with 1{tilde over (0)} μl injections of 0.05% SDS. […] (RUmax=435). For all PDK1 construct tested, the off rates for S6Kp-HM were high in comparison to those of PIFtide binding with the time taken for 50% dissociation to occur for 56K-pHM is 30s compared to 1000s for PIFtide.

Experiment [6] deals with T3, PDK1[R131A] (Homo sapiens, UniProt O15530, R131A).
T3 construct: GST (N); made in house; host or cells: human embryonic kidney 293 cells (pEBG2T vector)
T3 sequence (O15530 1-556 R131A): T1 sequence (O15530 1-556 K76A) with A76K, R131A
The experiment is described as follows: PDK1 catalytic activity towards T308tide, activation by peptides, PDK1[R131A]. The format is biochemical. As to conditions: high peptide concentrations. Here is the method: as §1
The ability of wild type and mutant PDK1 to phosphorylate the synthetic peptide T308tide ([…] ([Biondi et al., 2000]) (SEQ ID NO:108) was carried out in 30 μl assays containing 100 ng of wild type or mutant PDK1, 50 mM Tris/HCl pH 7.5, 0.1% 13-mercaptoethanol, 10 mM MgCl2, 100 μM [32γ P]ATP (200 cpm/pmol), 0.5 μM microcystin-LR, 1 mM T308tide in the presence or absence of the indicated concentrations of the 56K-pHM peptide ([…](P)YVAPSV) (SEQ ID NO:104) or 56K-HM. peptide ([…]) (SEQ ID NO:105). After incubation for 10 min at 30° C., 25 μl of the resultant mixture was spotted into P81 phosphocellulose paper (2×2 cm) and the papers washed and analysed as described previously for assays of MAP kinase. Control assays were carried out in parallel in which either PDK1, or peptide substrate were omitted; these values were always less than 5% of the activity measured in the presence of these reagents. One Unit of PDK1 activity was defined as that amount required to catalyse the phosphorylation of 1 nmol of the T308tide in 1 min.

Where a chain is given by its changes, count along the chain named. Entries after “also recorded” stand apart in the source; their conditions may differ.

Regarding “GST-PDK1[K76A] (from UniProt O15530 1-556) (enzyme)”, the Kd in experiment [1] turned out to be 1.74 µM; in experiment [2], 1.7 µM. The fold lower affinity than wild type PDK1 in experiment [3] was determined as 3 fold.

As for “S6K-HM: non-phosphorylated S6K-HM peptide (SESANQVFLGFTYVAPSV)”, in experiment [4], the “activation of PDK1[K76A] by non-phosphorylated peptide” value is recorded as “to a similar extent as wild type PDK1”. The “binding of wild type PDK1 to peptide” value in experiment [5] is given as “No detectable binding; also recorded: not detectably”. In addition, in experiment [6], the “activation of PDK1[R131A] by non-phosphorylated peptide” value is listed as “to a similar extent as wild type PDK1”.
